How the values were obtained:
Hnrnph1 = target: T1, Hnrnph1; assay: CDI HuProt native protein microarray (High-Spec cross-reactivity assay)
T1 construct: The lower-case gene symbol may mean a mouse clone
T1 sequence (P31943 1-449, species assumed, looked up): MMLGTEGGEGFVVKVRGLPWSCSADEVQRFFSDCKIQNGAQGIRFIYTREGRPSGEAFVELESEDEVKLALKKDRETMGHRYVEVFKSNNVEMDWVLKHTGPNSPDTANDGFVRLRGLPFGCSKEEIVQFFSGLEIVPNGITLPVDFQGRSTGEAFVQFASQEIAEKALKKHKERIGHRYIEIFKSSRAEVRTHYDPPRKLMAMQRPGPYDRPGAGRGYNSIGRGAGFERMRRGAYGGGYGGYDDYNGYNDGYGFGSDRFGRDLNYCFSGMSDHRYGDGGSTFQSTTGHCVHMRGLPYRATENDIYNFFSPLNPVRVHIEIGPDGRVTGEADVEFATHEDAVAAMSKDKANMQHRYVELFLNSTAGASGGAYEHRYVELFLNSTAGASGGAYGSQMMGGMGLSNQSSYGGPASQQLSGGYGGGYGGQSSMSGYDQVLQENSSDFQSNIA
Description: (§1) To confirm specificity to IL-38, several lead candidate antibodies (CD1-M3, CD1-M8, NZB-M8) were analyzed in a High-Spec Cross-reactivity Assay using native HuProt arrays (CDI Laboratories). […] of antibody was incubated overnight in a cold room, washed, and probed with anti-human secondary antibodies. Fluorescence intensity (F635) as an indicator of binding was measured for each spot. CDI software quantified the specificity of the antibody to each spot based on a Z-score. Z-score is defined as [F635−(Average F635 on array)]/(Standard deviation of F635 on array). S-score is defined as the difference between the Z-score of a given protein and the Z-score of the next highest protein.

IL-36a = target: T2, IL-36a (human, UniProt Q9UHA7 1-158, limits assumed); assay: CDI HuProt native protein microarray, IL-1 family members
T2 sequence (looked up): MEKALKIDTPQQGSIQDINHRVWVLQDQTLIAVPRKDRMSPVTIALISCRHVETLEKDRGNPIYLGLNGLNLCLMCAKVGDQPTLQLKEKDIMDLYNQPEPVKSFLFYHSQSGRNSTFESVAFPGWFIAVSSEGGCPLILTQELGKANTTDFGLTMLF
Description: as §1

IL-36g = target: T3, IL-36g (human, UniProt Q9NZH8 1-169, limits assumed); assay: as above
T3 sequence (looked up): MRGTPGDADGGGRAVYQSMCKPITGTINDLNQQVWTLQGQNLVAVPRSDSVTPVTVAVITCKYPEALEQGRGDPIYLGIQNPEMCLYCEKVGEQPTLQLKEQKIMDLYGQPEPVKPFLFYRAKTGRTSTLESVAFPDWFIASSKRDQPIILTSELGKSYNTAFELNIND
Description: as §1

IL-18 = target: T4, IL-18 (human, UniProt Q14116 1-193, limits assumed); assay: as above
T4 sequence (looked up): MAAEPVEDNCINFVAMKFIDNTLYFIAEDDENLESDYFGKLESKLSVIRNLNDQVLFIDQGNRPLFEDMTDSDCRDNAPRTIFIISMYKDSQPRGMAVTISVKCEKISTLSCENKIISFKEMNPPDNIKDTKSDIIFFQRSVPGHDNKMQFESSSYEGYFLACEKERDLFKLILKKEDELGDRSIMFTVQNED
Description: as §1

IL-37 = target: T5, IL-37 (human, UniProt Q9NZH6 1-218, limits assumed); assay: as above
T5 sequence (looked up): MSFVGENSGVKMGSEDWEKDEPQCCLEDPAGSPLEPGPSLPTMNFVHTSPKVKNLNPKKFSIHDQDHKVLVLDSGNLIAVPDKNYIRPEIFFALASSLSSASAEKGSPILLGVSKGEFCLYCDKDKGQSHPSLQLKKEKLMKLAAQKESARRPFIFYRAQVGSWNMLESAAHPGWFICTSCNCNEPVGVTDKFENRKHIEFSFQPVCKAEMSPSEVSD
Description: as §1

IL-36Ra = target: T6, IL-36Ra (human, UniProt Q9UBH0 1-155, limits assumed); assay: as above
T6 sequence (looked up): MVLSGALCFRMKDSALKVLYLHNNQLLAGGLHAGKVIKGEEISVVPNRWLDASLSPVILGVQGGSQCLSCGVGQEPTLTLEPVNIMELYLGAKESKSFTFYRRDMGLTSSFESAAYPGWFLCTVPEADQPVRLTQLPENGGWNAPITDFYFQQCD
Description: as §1

IL-1β = IL-1β (human, UniProt P01584 1-269, limits assumed); assay: as above
Description: as §1

[1] = target: T7, human interleukin-38 (IL-38) (human, UniProt Q8WWZ1 1-152); assay: as above
T7 construct: The Adipogen protein is called full length; also called IL1F10/IL38; IL1F10
T7 sequence (looked up): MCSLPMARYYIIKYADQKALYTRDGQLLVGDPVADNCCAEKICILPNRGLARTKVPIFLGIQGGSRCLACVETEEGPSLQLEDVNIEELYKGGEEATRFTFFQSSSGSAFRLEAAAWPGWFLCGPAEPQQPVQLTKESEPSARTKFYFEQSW
Description: as §1

IL-1α = target: T8, IL-1α (human, UniProt P01583 1-271, limits assumed); assay: as above
T8 sequence (looked up): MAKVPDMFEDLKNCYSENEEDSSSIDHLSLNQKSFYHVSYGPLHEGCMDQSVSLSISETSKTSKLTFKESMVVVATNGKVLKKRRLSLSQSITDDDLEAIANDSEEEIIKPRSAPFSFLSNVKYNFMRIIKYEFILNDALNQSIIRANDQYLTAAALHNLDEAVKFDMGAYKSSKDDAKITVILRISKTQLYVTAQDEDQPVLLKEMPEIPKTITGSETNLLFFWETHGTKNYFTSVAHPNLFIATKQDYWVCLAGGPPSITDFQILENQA
Description: as §1

IL-1Ra = IL-1Ra (human, UniProt P18510 26-177, limits assumed); assay: as above
Description: as §1

Sequence of IL-1Ra (P18510 26-177 limits assumed): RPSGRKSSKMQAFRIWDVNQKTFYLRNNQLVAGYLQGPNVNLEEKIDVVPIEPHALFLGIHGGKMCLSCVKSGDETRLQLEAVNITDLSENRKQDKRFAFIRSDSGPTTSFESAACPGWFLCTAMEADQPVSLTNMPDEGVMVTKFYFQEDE

B1: CD1-M3 (antibody, V domains shown)
VH: EVQLQQSGPELVKPGASVKIPCKASGYTFTDYNMDWVKQSHGKSLEWIGDINPNNGGTIYNQKFKGKATLTVDKSSSTAYMELRSLTSEDTAVYYCSRPYYGYFAYWGQGTLVTVSA
VL: DVVMTQSPLSLPVSLGDQASISCRSSQSLVHSHENTFLHWYLQKPGQSPKLLIYRVSNRFSGVPDRFSGSGSGTDFTLKISRVEAEDLGVYFCSQSTHVPLTFGAGTKLELK
notes: Mouse monoclonal from a hybridoma of a CD-1 mouse immunized with full length recombinant IL-38
B1 showed an F635 (Hnrnph1) of 4130, a S-Score (Hnrnph1) of 5 and a Z-score (Hnrnph1) of 10.6. It also gave a Z-score (IL-36a) of -0.008, a Z-score (IL-36g) of -0.017 and a Z-score (IL-18) of -0.016. For the same binder, the Z-score (IL-37) was -0.013, the Z-score (IL-36Ra) was -0.017 and the Z-score (IL-1β) was -0.016. For the same binder, the Z-score [1] was 140, the Z-score (IL-1α) was -0.013 and the Z-score (IL-1Ra) was -0.013.

— patent US20240174741A1 (IMMUNOME, published 2024)
